28 molecules from patent publication US20220064272A1 (TAUC3 BIOLOGICS, published 2022) can be followed below.

Residue numbers refer to the chain shown, from its start. Values joined by “and” are separate entries in the source; they are usually repeats but may differ in a detail not shown here. Equal entries are not always repeated.

To fix the notation:
B1: Tau01 HBKG (antibody, V domains shown)
VH: EVQVVESGGGLVQPGGSLKLSCAASGFTFNTYAMNWVRQASGKGLEWVARIRSKSNNYATYYADSVKGRFTISRDDSKSMVYLQMDSLKTEDTAVYYCVGGGDFWGQGTLVTVSS
VL: DIQMTQSPSSLSASVGDRVTITCRASQEISVYLGWYQQKPGKAPKRLIYGAFTLQSGVPSRFSGSRSGTEFTLTISSLQPEDFATYYCLQYVRYPWTFGGGTKVEIK
notes: human IgG4 kappa (HuG4K)
B2: HBKD (antibody, V domains shown)
VH: B1 VH
VL: B1 VL with G34S, T53K
notes: humanized variant, HB with KD; also called Tau01 HBKD HuG4K
B3: HBKH (antibody, V domains shown)
VH: B1 VH
VL: B1 VL with T53K, T69S
notes: humanized variant, HB with KH; also called Tau01 HBKH HuG4K
B4: Tau01 HBKE (antibody, V domains shown)
VH: B1 VH
VL: B1 VL with Y36F, T53K
notes: human IgG4 kappa (HuG4K)
B5: Tau01 HBKI (antibody, V domains shown)
VH: B1 VH
VL: B1 VL with T53K, F71Y
notes: human IgG4 kappa (HuG4K)
B6: HBKF (antibody, V domains shown)
VH: B1 VH
VL: B1 VL with P44I, T53K
notes: humanized variant, HB with KF; also called Tau01 HBKF HuG4K
B7: Tau01 HBKJ (antibody, V domains shown)
VH: B1 VH
VL: B1 VL with T53S
notes: human IgG4 kappa (HuG4K)
B8: Tau01 HCKI (antibody, V domains shown)
VH: B1 VH with E1L, V4L, A49G, D64A, V81A
VL: B1 VL with T53K, F71Y
notes: human IgG4 kappa (HuG4K)
B9: Tau01 HCKE (antibody, V domains shown)
VH: B1 VH with E1L, V4L, A49G, D64A, V81A
VL: B1 VL with Y36F, T53K
notes: human IgG4 kappa (HuG4K)
B10: HCKF (antibody, V domains shown)
VH: B1 VH with E1L, V4L, A49G, D64A, V81A
VL: B1 VL with P44I, T53K
notes: humanized variant, HC with KF; also called Tau01 HCKF HuG4K
B11: HCKH (antibody, V domains shown)
VH: B1 VH with E1L, V4L, A49G, D64A, V81A
VL: B1 VL with T53K, T69S
notes: humanized variant, HC with KH; also called Tau01 HCKH HuG4K
B12: Tau01 HCKG (antibody, V domains shown)
VH: B1 VH with E1L, V4L, A49G, D64A, V81A
VL: B1 VL
notes: human IgG4 kappa (HuG4K)
B13: Tau01 HCKJ (antibody, V domains shown)
VH: B1 VH with E1L, V4L, A49G, D64A, V81A
VL: B1 VL with T53S
notes: human IgG4 kappa (HuG4K)
B14: HCKD (antibody, V domains shown)
VH: B1 VH with E1L, V4L, A49G, D64A, V81A
VL: B1 VL with G34S, T53K
notes: humanized variant, HC with KD; also called Tau01 HCKD HuG4K
B15: Tau01 HMKJ (antibody, V domains shown)
VH: B1 VH with E1L, V4L, D64A, V81A
VL: B1 VL with T53S
notes: human IgG4 kappa (HuG4K)
B16: Tau01 HMKA (antibody, V domains shown)
VH: B1 VH with E1L, V4L, D64A, V81A
VL: B1 VL with T53K
notes: human IgG4 kappa (HuG4K)
B17: Tau01 HMKB (antibody, V domains shown)
VH: B1 VH with E1L, V4L, D64A, V81A
VL: B1 VL with G34S, Y36F, P44I, T69S, F71Y
notes: human IgG4 kappa (HuG4K)
B18: Tau01 HMKG (antibody, V domains shown)
VH: B1 VH with E1L, V4L, D64A, V81A
VL: B1 VL
notes: human IgG4 kappa (HuG4K)
B19: Tau01 HMKI (antibody, V domains shown)
VH: B1 VH with E1L, V4L, D64A, V81A
VL: B1 VL with T53K, F71Y
notes: human IgG4 kappa (HuG4K)
B20: Tau01 HNKB (antibody, V domains shown)
VH: B1 VH with E1L, A49G, D64A, V81A
VL: B1 VL with G34S, Y36F, P44I, T69S, F71Y
notes: human IgG4 kappa (HuG4K)
B21: Tau01 HNKA (antibody, V domains shown)
VH: B1 VH with E1L, A49G, D64A, V81A
VL: B1 VL with T53K
notes: human IgG4 kappa (HuG4K)
B22: Tau01 HMKM HuG4k (antibody, V domains shown)
VH: B1 VH with E1L, V4L, D64A, V81A
VL: B1 VL with G34S, Y36F, P44I, T53S, F71Y
notes: human IgG4 kappa (HuG4K)
B23: Tau01 HCKP (antibody, V domains shown)
VH: B1 VH with E1L, V4L, A49G, D64A, V81A
VL: B1 VL with Y36F, T53K, F71Y
notes: human IgG4 kappa (HuG4K)
B24: Tau01 HCKO (antibody, V domains shown)
VH: B1 VH with E1L, V4L, A49G, D64A, V81A
VL: B1 VL with T53S, F71Y
notes: human IgG4 kappa (HuG4K)
B25: Tau01 HCKN (antibody, V domains shown)
VH: B1 VH with E1L, V4L, A49G, D64A, V81A
VL: B1 VL with F71Y
notes: human IgG4 kappa (HuG4K)
B26: Tau01 HCKL (antibody, V domains shown)
VH: B1 VH with E1L, V4L, A49G, D64A, V81A
VL: B1 VL with G34S, Y36F, P44I, T53K, F71Y
notes: human IgG4 kappa (HuG4K)
B27: Tau01 HMKL (antibody, V domains shown)
VH: B1 VH with E1L, V4L, D64A, V81A
VL: B1 VL with G34S, Y36F, P44I, T53K, F71Y
notes: human IgG4 kappa (HuG4K)
B28: Tau01 HMKC (antibody, V domains shown)
VH: B1 VH with E1L, V4L, D64A, V81A
VL: B1 VL with G34S, Y36F, T53K, F71Y
notes: human IgG4 kappa (HuG4K)

For the first assay, the target named is T1, TauC3 (C-terminally truncated tau fragment ending at aspartate 421 of htau40) (human, UniProt P10636 1-738).
T1 construct: Generated and purified by Genscript; also called Human TauC3; recombinant TauC3 protein
T1 sequence (P10636 other isoform, or with tags, fused parts or gaps): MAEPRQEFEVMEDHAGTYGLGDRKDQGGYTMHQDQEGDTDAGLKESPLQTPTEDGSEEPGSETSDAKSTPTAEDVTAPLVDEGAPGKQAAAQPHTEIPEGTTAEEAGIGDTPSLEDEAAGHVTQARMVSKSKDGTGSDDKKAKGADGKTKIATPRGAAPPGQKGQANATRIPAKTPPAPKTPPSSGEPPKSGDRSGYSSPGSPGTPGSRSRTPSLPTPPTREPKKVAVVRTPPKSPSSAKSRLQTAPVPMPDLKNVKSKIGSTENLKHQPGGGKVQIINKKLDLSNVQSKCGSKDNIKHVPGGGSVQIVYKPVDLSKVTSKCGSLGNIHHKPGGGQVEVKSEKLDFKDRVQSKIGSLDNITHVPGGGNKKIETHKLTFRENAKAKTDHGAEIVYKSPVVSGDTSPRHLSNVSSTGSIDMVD
Kind of assay: binding ELISA on coated TauC3, OD650. In short, it runs like this: (§1)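 EC50 values come from antibody concentration-response curves in a binding ELISA on coated TauC3 antigen. The chimeric or humanized IgG4κ antibodies were produced in ExpiCHO cells, and binding was measured as absorbance at 650 nm.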
Background: An ELISA detects its analyte on a solid surface through an enzyme-linked reagent.
What is called EC50 is the concentration needed to bring the measured effect to its halfway point. B1 returned an EC50 of 0.761 nM.

As for B2, the EC50 was determined as 3.04 nM.

In turn, B3 gave a 50% effective concentration (EC50) of 0.807 nM.

For the molecule B4, it took 0.915 nM to reach a half-maximal effect (EC50).

Take B5: the concentration giving a half-maximal response (EC50) amounted to 0.705 nM.

For B6, the concentration for a half-maximal effect (EC50) was 0.786 nM.

With B7, the response was half-maximal at 0.811 nM (EC50).

The target of the next assay is T1, TauC3 (C-terminally truncated tau …). Kind of assay: binding ELISA on coated TauC3, OD650. The source holds these as a separate data set. A digest of the protocol:
as §1
For B8, a half-maximal effect (EC50) was put at 0.741 nM.

B9: the EC50 came to 1.24 nM.

As to B10, the half-maximal effective concentration (EC50) came out at 2.25 nM.

B11 had a concentration for a half-maximal effect (EC50) of 1.03 nM.

B12 displayed a concentration for a half-maximal effect (EC50) of 0.98 nM.

For B13, the EC50 was 1.01 nM.

Consider B14, for which the EC50 worked out at 2.02 nM.

Another assay shares this target. Briefly: binding ELISA on coated TauC3, OD650. The source holds these as a separate data set. In short, it runs like this: as §1
Take B15: the EC50 is 0.522 nM.

The molecule B16 returned a half-maximal effective concentration (EC50) of 0.556 nM.

Take B17: the EC50 came to 0.412 nM.

In turn, B18 registered an EC50 of 0.543 nM.

Take B19: the EC50 was found to be 0.549 nM.

Another assay has the same target. Kind of assay: binding ELISA on coated TauC3, OD650. This is another data set of the same source. A digest of the protocol:
as §1
For the molecule B20, the response was half-maximal at 0.59 nM (EC50).

For B21, a half-maximal effect (EC50) was put at 1.09 nM.

The next assay has the same target. Briefly: SPR (Biacore) kinetics, TauC3 amine-coupled on CM5, 1:1 global fit. A digest of the protocol: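 Association rate, dissociation rate and Kd were derived by global fitting of surface plasmon resonance (Biacore) data. The fit used a 1:1 model, with a concentration series of each purified antibody flowed over purified antigen amine-coupled to a CM5 chip.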
(In general: In SPR one partner is held on a chip, and binding of the other changes the refractive index at the surface.)
One may read the Kd as the free concentration of one partner at which half of the binding sites on the other are occupied at equilibrium, for simple one-to-one binding. As usually defined, the koff is a measure of how fast the partners let go of each other. Usually kon stands for a measure of how fast the partners come together. As for B22, the Kd worked out at 0.11 nM, the dissociation rate constant (koff) was 0.0181 s⁻¹ and the kon stood at 1.65e+08 M⁻¹ s⁻¹.

The target is the same in the next assay. Kind of assay: binding ELISA on coated TauC3, OD650; left table (HC variants). In short, it runs like this:
as §1
Consider B8, for which the response was half-maximal at 0.655 nM (EC50).

The molecule B23 registered a half-maximal effective concentration (EC50) of 0.821 nM.

B24 came in with an EC50 of 0.537 nM.

In turn, B9 yielded an EC50 of 0.941 nM.

As to B25, the EC50 worked out at 0.574 nM.

In turn, B12 displayed an EC50 of 0.573 nM.

As for B13, the 50% effective concentration (EC50) turned out to be 0.766 nM.

B26: it took 0.835 nM to reach a half-maximal effect (EC50).

For a further assay the target is unchanged. Kind of assay: binding ELISA on coated TauC3, OD650; right table (HM variants). A digest of the protocol: as §1
B27 gave a concentration giving a half-maximal response (EC50) of 0.47 nM.

With B15, a half-maximal response (EC50) required 0.433 nM.

Regarding B16, the EC50 was 0.641 nM and 0.462 nM.

Take B28: the EC50 is 0.433 nM and 0.718 nM.

In turn, B12 came in with a concentration for a half-maximal effect (EC50) of 0.573 nM.

Regarding B18, the EC50 is 0.515 nM and 0.607 nM.

With B19, the concentration for a half-maximal effect (EC50) was 0.474 nM and 0.458 nM.

A further assay has the same target. Kind of assay: Biacore kinetics, TauC3 amine-coupled on CM5, antibody series, 1:1 global fit. The text has this: To determine the affinity of the binding interactions, a biacore kinetic assay was developed which involved immobilizing TauC3 on a CM5 chip via amine coupling and injecting a concentration series of the respective antibody over it.
With B22, the off-rate (koff) stood at 0.0181 s⁻¹.

The target is the same in a further assay. Briefly: Biacore off-rate ranking, TauC3 amine-coupled on CM5, one antibody concentration; one-phase exponential decay fit. The protocol:
(§2) To further evaluate the binding data observed on the Octet, an off-rate ranking experiment was performed on the Biacore 200 instrument. Biacore offers greater selectivity than the Octet and facilitated the immobilization of TauC3 onto a CM5 chip via amine coupling which stabilizes the antigen. This produces higher quality data with stable baselines and good reproducible responses. Once TauC3 is immobilized, one concentration (5 nM) of antibody is added, followed by a dissociation and regeneration step (Section 8.20). The off-rates were fitted using a two-phase decay model (FIG. 25B) or a one phase decay fitting only the second off-rate (FIG. 25A). The candidates were then ranked based on the off-rates obtained using the fits and compared. The data agreed with the Octet results (albeit with a different ranking order), highlighting Tau01 HMKM, HMKO, HMKP, HMKN and HMKE as the humanized variants with the slowest off-rates. The lack of binding of FL Tau to chimeric and a humanized candidate was also confirmed by Biacore by loading the antibody onto a Protein G chip and adding 250 nM FL Tau.
B15 had a koff of 0.00136 s⁻¹.

Regarding B16, the koff amounted to 0.000882 s⁻¹.

As for B28, the off-rate constant (koff) amounted to 0.000843 s⁻¹.

In turn, B22 displayed an off-rate (koff) of 0.000264 s⁻¹.

As for B17, the koff turned out to be 0.00062 s⁻¹.

Molecule B18 had an off-rate constant (koff) of 0.000453 s⁻¹.

B19 registered a koff of 0.00181 s⁻¹.

The target is the same in a further assay. Briefly: Biacore off-rate ranking, TauC3 amine-coupled on CM5, one antibody concentration; two-phase decay fit, slow phase. Set-up: unit not given here. On the procedure: as §2
Turning to B15, the Kslow was determined as 0.00123.

Molecule B16 returned a Kslow of 0.000815.

For the molecule B28, the Kslow came out at 0.000711.

B22 gave a Kslow of 0.000553.

B17 registered a Kslow of 0.000138.

On to B18, for which the Kslow is 0.000384.

In turn, B19 had a Kslow of 0.00179.
